The values below come from patent US5612455, “Nuclear factors and binding assay” (Tularik, Inc.).

The target of series [1] is T1, NFAT3 full length (Homo sapiens) (UniProt Q14934).
T1 sequence: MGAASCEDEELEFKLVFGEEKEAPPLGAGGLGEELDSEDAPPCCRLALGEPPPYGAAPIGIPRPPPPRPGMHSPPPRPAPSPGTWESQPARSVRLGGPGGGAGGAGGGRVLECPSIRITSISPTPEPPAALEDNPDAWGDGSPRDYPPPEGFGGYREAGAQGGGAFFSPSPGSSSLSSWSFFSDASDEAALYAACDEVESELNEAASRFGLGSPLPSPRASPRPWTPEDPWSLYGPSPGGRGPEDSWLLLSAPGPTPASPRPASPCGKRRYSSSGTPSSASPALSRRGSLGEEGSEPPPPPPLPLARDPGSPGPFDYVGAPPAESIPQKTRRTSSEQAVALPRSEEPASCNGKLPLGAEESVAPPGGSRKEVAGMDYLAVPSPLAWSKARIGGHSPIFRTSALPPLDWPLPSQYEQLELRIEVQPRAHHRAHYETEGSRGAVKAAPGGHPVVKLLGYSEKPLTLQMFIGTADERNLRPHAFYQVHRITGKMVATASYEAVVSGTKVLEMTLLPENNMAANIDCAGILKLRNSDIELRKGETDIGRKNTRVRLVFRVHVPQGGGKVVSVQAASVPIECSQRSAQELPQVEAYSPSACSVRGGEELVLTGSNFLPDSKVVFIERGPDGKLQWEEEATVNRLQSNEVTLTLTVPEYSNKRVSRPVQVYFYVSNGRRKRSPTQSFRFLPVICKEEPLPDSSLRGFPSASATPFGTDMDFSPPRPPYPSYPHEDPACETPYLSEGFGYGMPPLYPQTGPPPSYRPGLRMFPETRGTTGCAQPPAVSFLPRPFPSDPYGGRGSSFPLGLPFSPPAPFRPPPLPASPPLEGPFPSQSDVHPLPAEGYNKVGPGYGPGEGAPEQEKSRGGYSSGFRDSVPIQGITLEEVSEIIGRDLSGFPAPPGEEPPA
Description: cell_activity. As to conditions: HepG2 cells; COS cells 50-fold independent of PMA and ionomycin.

The target of series [2] is T2, NFAT4 rel domain (Homo sapiens, UniProt Q12968 SEQ:393-708).
T2 sequence: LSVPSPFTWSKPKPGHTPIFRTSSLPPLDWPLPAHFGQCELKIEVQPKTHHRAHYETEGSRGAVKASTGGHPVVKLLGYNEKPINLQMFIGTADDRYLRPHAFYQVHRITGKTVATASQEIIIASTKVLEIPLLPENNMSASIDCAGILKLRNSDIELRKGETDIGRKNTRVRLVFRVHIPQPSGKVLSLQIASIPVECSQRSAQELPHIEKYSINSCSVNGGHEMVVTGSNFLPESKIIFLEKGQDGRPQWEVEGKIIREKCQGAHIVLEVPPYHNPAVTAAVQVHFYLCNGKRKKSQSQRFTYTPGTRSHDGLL
Kind of series: EMSA; binding not detectable; core only printed. The conditions noted are these: tags: N-terminal 8 aa heart muscle kinase site (pT7-HMK), E. coli.

The target in series [3] is NFAT3 rel domain + c-Jun/Fra-1 (Homo sapiens, UniProt Q14934;P05412;P15407 Q14934:400-744,P05412:1-331,P15407:1-271). Description: EMSA; highly cooperative; jun homodimers less effective; exact EMSA probe not stated. The conditions noted are these: tags: NFAT3 HMK site. A general note: In EMSA bound probe runs differently from free probe, usually more slowly.
NFAT3 rel domain + c-Jun/Fra-1, sequence (P05412 whole entry, chain 2 of 2, the tested form may be a part): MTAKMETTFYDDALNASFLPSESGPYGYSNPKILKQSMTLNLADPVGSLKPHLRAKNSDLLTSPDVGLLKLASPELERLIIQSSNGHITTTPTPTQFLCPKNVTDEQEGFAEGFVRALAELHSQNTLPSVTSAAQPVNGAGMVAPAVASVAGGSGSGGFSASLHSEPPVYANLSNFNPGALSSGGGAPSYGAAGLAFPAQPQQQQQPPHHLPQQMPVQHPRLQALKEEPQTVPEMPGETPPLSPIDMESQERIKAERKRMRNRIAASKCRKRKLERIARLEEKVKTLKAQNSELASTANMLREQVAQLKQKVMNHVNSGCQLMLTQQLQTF
NFAT3 rel domain + c-Jun/Fra-1, sequence (P15407 whole entry, chain 3 of 2, the tested form may be a part): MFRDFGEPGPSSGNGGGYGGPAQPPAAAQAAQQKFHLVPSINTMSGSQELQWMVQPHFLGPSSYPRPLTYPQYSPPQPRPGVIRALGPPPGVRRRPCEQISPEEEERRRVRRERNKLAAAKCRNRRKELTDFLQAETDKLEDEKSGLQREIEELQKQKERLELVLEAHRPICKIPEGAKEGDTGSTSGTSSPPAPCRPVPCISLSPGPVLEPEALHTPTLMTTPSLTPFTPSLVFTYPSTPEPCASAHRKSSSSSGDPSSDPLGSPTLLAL
Series [4] addresses NFATc rel domain + c-Jun/Fra-1 (Homo sapiens, UniProt O95644-2;P05412;P15407 O95644-2:408-716,P05412:1-331,P15407:1-271). Described as above. The conditions noted are these: tags: NFATc HMK site.
Series [5] concerns the target NFATp rel domain + c-Jun/Fra-1 (Homo sapiens, UniProt Q13469;P05412;P15407 Q13469:392-744,P05412:1-331,P15407:1-271). Description: EMSA; highly cooperative; similar affinity for all four NFATs; jun homodimers less effective; exact EMSA probe not stated. The conditions noted are these: tags: NFATp HMK site.
Series [6] deals with NFAT4 rel domain + c-Jun/Fra-1 (Homo sapiens, UniProt Q12968;P05412;P15407 Q12968:393-708,P05412:1-331,P15407:1-271). Description: EMSA; highly cooperative; NFAT4 alone does not bind; jun homodimers less effective; exact EMSA probe not stated. The conditions noted are these: tags: NFAT4 HMK site.
NFAT4 rel domain + c-Jun/Fra-1, sequence (P05412 whole entry, chain 2 of 2, the tested form may be a part): as the sequence (P05412 whole entry, chain 2 of 2, the tested form may be a part) above
NFAT4 rel domain + c-Jun/Fra-1, sequence (P15407 whole entry, chain 3 of 2, the tested form may be a part): as the sequence (P15407 whole entry, chain 3 of 2, the tested form may be a part) above
The target in the next series is T3, NFAT3 rel domain (Homo sapiens, UniProt Q14934 SEQ:400-744).
T3 sequence: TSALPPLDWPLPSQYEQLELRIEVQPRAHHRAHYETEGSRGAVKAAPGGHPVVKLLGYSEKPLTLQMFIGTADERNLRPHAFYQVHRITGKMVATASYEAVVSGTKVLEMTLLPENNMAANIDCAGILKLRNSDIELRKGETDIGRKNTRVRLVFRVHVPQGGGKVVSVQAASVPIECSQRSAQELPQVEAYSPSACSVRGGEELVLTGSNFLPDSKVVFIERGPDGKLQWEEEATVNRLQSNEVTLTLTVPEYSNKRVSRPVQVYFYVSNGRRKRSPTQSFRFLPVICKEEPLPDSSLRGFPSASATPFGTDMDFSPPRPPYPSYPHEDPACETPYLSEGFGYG
Description: EMSA; probe length not stated, core SEQ 15; affinity similar to NFATp and NFATc; also purified on SEQ 17 resin. As to conditions: tags: N-terminal 8 aa heart muscle kinase site (pT7-HMK), E. coli.

In series [7] the target is T4, NFATc rel domain (NFATc-309) (Homo sapiens, UniProt O95644 SEQ:408-716).
T4 sequence: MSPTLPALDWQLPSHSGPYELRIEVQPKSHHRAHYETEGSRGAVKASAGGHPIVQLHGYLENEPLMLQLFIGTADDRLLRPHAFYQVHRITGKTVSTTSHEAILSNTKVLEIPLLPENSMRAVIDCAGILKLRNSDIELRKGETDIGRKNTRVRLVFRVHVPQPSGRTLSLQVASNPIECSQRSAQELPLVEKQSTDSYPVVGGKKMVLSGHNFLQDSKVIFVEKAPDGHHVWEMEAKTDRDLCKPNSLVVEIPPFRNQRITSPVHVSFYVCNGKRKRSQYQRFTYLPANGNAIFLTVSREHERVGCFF
Description: EMSA; probe length not stated, core SEQ 15; affinity similar to NFATp and NFAT3; also purified on SEQ 17 resin. As to conditions: tags: N-terminal 8 aa heart muscle kinase site (pT7-HMK), E. coli.

Series [8] concerns the target T5, NFATp rel domain (353 aa, homologous to murine NFATp 185-537) (Homo sapiens, UniProt Q13469 SEQ:390-742).
T5 sequence: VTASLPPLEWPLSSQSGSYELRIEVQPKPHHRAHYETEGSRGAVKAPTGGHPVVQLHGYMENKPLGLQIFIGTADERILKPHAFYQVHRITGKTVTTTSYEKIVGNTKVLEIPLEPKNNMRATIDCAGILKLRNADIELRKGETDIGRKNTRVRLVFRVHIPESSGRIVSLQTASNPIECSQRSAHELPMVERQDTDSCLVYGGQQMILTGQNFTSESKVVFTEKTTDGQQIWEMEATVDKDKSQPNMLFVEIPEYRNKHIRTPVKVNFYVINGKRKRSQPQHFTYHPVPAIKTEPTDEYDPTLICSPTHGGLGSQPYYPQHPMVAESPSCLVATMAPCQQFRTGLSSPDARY
Description: EMSA; probe length not stated, core SEQ 15; affinity similar to NFATc and NFAT3; 50 mM KCl, RT; also purified on SEQ 17 affinity resin. As to conditions: tags: N-terminal 8 aa heart muscle kinase site (pT7-HMK), E. coli.

Series [9] concerns the target T2, NFAT4 rel domain. Description: EMSA; probe length not stated, core SEQ 15; also purified on SEQ 17 resin. The conditions noted are these: tags: N-terminal 8 aa heart muscle kinase site (pT7-HMK), E. coli.

NFATc rel domain + c-Jun/Fra-1, sequence (P05412 whole entry, chain 2 of 2, the tested form may be a part): as the sequence (P05412 whole entry, chain 2 of 2, the tested form may be a part) above
NFATc rel domain + c-Jun/Fra-1, sequence (P15407 whole entry, chain 3 of 2, the tested form may be a part): as the sequence (P15407 whole entry, chain 3 of 2, the tested form may be a part) above
NFATp rel domain + c-Jun/Fra-1, sequence (Q13469 392-744, chain 1 of 3): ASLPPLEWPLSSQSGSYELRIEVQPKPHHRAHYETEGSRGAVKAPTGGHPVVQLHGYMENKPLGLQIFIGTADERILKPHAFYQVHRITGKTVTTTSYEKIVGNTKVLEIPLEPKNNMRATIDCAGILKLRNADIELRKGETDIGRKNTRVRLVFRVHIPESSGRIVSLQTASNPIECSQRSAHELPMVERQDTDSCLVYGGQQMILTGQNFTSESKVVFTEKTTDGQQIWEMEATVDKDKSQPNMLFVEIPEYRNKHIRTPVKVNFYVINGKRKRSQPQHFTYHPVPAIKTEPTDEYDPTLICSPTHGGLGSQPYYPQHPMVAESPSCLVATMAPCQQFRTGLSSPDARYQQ
NFATp rel domain + c-Jun/Fra-1, sequence (P05412 whole entry, chain 2 of 3, the tested form may be a part): as the sequence (P05412 whole entry, chain 2 of 2, the tested form may be a part) above
NFATp rel domain + c-Jun/Fra-1, sequence (P15407 whole entry, chain 3 of 3, the tested form may be a part): as the sequence (P15407 whole entry, chain 3 of 2, the tested form may be a part) above

For “3x antigen response element (-286 to -257) tk reporter”, the activity (fold activation) in series [1] stood at 140.

B1: IL-2 promoter NFAT site (distal antigen response element) (dsDNA)
DNA 1: GGAAAAACTG
DNA 2: CAGTTTTTCC
Consider B1, for which, in the series with NFAT4 rel domain [2], the binding result is given as “no binding”.

B2: IL-2 NFAT/AP-1 composite element (dsDNA)
DNA 1: GGAGGAAAAACTGTTTCATACAGAAGGCGT
DNA 2: ACGCCTTCTGTATGAAACAGTTTTTCCTCC
For B2, the binding result in [3], in series [4], in series [5] and in series [6] was “binds” each time.

B3: IL-4 promoter NFAT site (dsDNA)
DNA 1: TACATTGGAAAATTTTATTACAC
DNA 2: GTGTAATAAAATTTTCCAATGTA
As for B3, the binding result (in the series with NFAT3 rel domain; in series [7]; in [8]) was “binds” throughout. Moreover, the binding signal with NFAT4 rel domain [9] is > 10 fold lower affinity than NFATp, NFATc, NFAT3.
